Assay [1] has as its target T1, recombinant human C1r2s2 tetramer (human, UniProt P09871 16-688; P00736 18-705).
T1 construct: C1s and C1r co-expressed in HEK293 and purified from the supernatant as tetramer; also called hC1r2s2
T1 chain 1: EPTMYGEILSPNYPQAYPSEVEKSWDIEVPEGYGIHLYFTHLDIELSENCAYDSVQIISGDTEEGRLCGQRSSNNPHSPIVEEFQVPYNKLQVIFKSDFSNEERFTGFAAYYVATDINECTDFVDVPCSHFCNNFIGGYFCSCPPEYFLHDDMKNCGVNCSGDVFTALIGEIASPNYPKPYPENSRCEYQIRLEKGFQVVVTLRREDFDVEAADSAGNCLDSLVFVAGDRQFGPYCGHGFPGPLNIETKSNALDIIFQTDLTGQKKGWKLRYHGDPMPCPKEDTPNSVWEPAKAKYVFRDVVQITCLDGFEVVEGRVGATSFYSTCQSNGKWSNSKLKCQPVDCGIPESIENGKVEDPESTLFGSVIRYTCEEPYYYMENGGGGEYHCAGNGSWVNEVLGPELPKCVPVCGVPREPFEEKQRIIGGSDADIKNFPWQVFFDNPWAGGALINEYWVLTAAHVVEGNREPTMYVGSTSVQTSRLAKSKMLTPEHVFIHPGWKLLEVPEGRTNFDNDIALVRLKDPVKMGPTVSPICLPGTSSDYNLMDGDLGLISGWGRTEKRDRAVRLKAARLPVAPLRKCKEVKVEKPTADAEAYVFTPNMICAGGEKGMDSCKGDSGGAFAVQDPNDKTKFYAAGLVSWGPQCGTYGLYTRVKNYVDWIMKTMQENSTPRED
T1 chain 2: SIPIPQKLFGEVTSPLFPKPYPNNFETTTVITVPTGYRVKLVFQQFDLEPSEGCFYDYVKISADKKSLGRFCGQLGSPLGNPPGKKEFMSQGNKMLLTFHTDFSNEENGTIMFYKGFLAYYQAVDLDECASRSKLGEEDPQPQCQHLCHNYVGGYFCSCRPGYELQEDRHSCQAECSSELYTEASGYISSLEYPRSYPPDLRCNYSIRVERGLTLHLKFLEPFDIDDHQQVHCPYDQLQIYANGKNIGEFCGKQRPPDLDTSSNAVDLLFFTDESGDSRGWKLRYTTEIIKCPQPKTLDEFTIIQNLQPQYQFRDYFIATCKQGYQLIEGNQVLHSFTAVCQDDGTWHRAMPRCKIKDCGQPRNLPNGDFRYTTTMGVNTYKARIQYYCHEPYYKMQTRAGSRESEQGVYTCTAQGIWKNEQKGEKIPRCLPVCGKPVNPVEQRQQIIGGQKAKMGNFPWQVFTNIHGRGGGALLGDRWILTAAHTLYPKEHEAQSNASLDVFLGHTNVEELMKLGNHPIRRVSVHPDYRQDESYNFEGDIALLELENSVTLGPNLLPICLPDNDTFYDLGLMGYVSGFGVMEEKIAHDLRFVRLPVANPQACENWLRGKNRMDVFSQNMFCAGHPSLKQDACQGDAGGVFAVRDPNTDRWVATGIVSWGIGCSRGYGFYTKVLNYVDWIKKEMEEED
Nature of the assay: SPR (Biacore T200), 37 C; ratio of KD at pH 6.0 to KD at pH 7.4. Here is the method:
(§1) The binding property of each sample at pH7.4 and pH6.0 was determined at 37° C. using BIACORE® T200 instrument (Cytiva). […] 20 mM ACES, 150 mM NaCl, 1.2 mM CaCl₂, 1 mg/mL BSA (not containing IgG), 1 mg/mL CMD, 0.05% Tween® 20, 0.005 w/v % NaN₃, pH7.4 or pH6.0 buffer was used as the running buffer. […] The antibody solution was added thereto at 30 μL/min for 120 seconds, the running buffer was then added at 30 μL/min for 180 seconds, and the dissociation constant (KD) of each antibody for hC1r2s2 and cyC1r2s2 was calculated. […] The sensor surface was regenerated every cycle, using 3 M MgCl2 (prepared in-house). The KD value was calculated using BIACORE® T200 evaluation software version 2.0 (Cytiva). The binding strengths under each pH condition were compared by dividing the KD value at pH6.0 with the KD value at pH7.4.
Background: Surface plasmon resonance follows binding to a sensor surface in real time, without labels.

Assay [2] deals with T2, recombinant cynomolgus C1r2s2 tetramer (cynomolgus monkey, limits assumed).
T2 construct: also called cyC1r2s2; monkey C1r2s2
T2 chain 1: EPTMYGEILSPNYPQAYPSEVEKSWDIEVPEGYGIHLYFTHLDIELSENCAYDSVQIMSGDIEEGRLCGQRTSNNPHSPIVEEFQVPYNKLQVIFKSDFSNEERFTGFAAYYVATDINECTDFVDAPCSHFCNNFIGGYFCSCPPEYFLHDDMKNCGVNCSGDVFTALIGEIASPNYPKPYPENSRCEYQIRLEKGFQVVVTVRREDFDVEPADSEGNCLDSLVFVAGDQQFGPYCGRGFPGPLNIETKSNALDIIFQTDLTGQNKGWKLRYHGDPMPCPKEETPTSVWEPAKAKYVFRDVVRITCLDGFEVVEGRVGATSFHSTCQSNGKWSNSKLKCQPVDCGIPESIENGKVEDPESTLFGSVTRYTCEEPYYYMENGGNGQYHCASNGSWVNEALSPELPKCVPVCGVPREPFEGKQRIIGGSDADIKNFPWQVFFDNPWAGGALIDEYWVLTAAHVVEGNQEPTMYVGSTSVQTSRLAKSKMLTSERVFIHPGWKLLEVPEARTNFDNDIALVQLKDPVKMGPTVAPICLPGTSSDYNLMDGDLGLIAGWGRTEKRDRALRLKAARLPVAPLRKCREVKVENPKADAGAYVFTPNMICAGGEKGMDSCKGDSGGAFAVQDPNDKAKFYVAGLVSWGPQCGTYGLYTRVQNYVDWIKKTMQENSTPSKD
T2 chain 2: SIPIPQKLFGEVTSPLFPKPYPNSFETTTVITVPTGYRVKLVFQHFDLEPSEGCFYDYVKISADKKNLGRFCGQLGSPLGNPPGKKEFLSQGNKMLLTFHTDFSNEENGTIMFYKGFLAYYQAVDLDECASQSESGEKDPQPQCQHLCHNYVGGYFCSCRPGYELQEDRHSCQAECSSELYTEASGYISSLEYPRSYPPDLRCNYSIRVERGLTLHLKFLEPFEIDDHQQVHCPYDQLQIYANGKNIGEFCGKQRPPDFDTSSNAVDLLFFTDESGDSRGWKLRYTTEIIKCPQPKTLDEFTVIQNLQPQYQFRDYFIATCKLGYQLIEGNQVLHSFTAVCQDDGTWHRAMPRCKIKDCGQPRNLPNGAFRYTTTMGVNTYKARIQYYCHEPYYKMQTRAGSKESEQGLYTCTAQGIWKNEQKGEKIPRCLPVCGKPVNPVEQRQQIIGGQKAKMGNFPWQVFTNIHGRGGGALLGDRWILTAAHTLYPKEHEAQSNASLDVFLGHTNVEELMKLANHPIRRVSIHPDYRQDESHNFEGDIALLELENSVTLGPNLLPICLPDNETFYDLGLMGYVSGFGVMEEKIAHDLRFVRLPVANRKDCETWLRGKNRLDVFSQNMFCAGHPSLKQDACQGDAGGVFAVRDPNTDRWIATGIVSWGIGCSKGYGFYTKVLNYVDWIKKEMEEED
The description is as above. The procedure: as §1

Assay [3] has as its target T1, recombinant human C1r2s2 tetramer. Put plainly: SPR (Biacore T200), 37 C, pH 6.0; hC1r2s2 captured by IPN009, antibody as analyte. Here is the method: as §1
For assay [4] the target is unchanged. Put plainly: SPR (Biacore T200), 37 C, pH 7.4; hC1r2s2 captured by IPN009, antibody as analyte. Here is the method: as §1
Assay [5] deals with T2, recombinant cynomolgus C1r2s2 tetramer. Put plainly: SPR (Biacore T200), 37 C, pH 7.4; cyC1r2s2 captured by IPN009, antibody as analyte. Here is the method: as §1
Assay [6] has the same target. Put plainly: SPR (Biacore T200), 37 C, pH 6.0; cyC1r2s2 captured by IPN009, antibody as analyte. Here is the method: as §1

B1: COS0637pHv8-TT91R (antibody, human IgG1)
heavy: QVQLVESGGGVVQPGRSLRLSCAASGFTFSAYAMNWIRQPPGKGLEWIGLIYGSGHEFYASWAEERVTISVDTSKNQFSLKLSSVTAADTAVYYCARGRSKNYNSDFHLWGQGTLVTVSSASTKGPSVFPLAPSSKSTSGGTAALGCLVKDYFPEPVTVSWNSGALTSGVHTFPAVLQSSGLYSLSSVVTVPSSSLGTQTYICNVNHKPSNTKVDKRVEPKSCDKTHTCPPCPAPEYLGGDSVFLFPPKPKDVLMISRTPEVTCVVIDVSHEDPEVKFNWYVDGVEVHNAKTKPREEQYNSTYRVVSVLPVLHRDWLNGKEYKCKVSNKALPKPIEKTISKAKGQRREPQVYTLPPSREEMTKNQVSLTCLVKGFYPSDIAVEWESNGQPENNYKTTPPVLDSDGSFFLYSKLTVDKSRWQQGNVFSCSVLHEALHAHTTRKELSLSP
light: DIQMTQSPSSLSASVGDRVTITCQANQILHDKKNLAWYQQKPGQPPKLLIYGASTLESGVPSRFSGSGSGTDFTLTISSLQPEDFATYYCHGEFSYSSADLNTFGQGTKVEIKRTVAAPSVFIFPPSDEQLKSGTASVVCLLNNFYPREAKVQWKVDNALQSGNSQESVTEQDSKDSTYSLSSTLTLSKADYEKHKVYACEVTHQGLSSPVTKSFNRGEC
notes: also called COS637pHv8-TT91R
Regarding B1, the “KD (pH 6.0)/KD (pH 7.4)” value in assay [1] worked out at 50.2; in assay [2], 67.5. Further, the dissociation constant (Kd) (in general, a measure of binding affinity in units of concentration) in assay [3] turned out to be 12.5 nM; in assay [4], 0.249 nM; in assay [5] it was 0.345 nM; in assay [6], 23.3 nM.

B2: COS0637pHv17-G1A3FcgSil+LowpI (antibody, V domains shown)
VH: QVQLVESGGGVVQPGRSLRLSCAASGFTFSAYAMNWIRQPPGKGLEWIGLIYGSGHEFYASWAEERVTISVDTSKNQFSLKLSSVTAADTAVYYCARGRSKNYNSDFHLWGQGTLVTVSS
VL: DIQMTQSPSSLSASVGDRVTITCQAHEILHDKKNLAWYQQKPGQPPKLLIYGASQRESGVPSRFSGSGSGTDFTLTISSLQPEDFATYYCHGEFPHSSADLNHFGQGTKVEIKR
notes: VH 24, VL 55, CH 45, CL 23
Take B2: the “KD (pH 6.0)/KD (pH 7.4)” value was 143 in assay [1] and 421 in assay [2]. Besides, the Kd in assay [3] came to 32.9 nM; in assay [4] it was 0.23 nM; in assay [5], 0.252 nM; in assay [6] it was 106 nM.

B3: COS0637pHv15-G1A3FcgSil+LowpI (antibody, V domains shown)
VH: QVQLVESGGGVVQPGRSLRLSCAASGFTFSAYAMNWIRQPPGKGLEWIGLIYGSGHEFYASWAEERVTISVDTSKNQFSLKLSSVTAADTAVYYCARGRSKNYNSDFHLWGQGTLVTVSS
VL: DIQMTQSPSSLSASVGDRVTITCQANEILHDKKNLAWYQQKPGQPPKLLIYGASTLESGVPSRFSGSGSGTDFTLTISSLQPEDFATYYCHGEFSYHSADLNTFGQGTKVEIKR
notes: VH 24, VL 59, CH 45 (G1A3FcgSil+LowpI), CL 23
With B3, the “KD (pH 6.0)/KD (pH 7.4)” value amounted to 797 in assay [1] and 226 in assay [2]. Further, the dissociation constant Kd in assay [3] stood at 318 nM; in assay [4], 0.399 nM; in assay [5] it was 0.492 nM; in assay [6] it was 111 nM.

B4: COS0637pHv8-G1A3FcgSil+LowpI (antibody)
heavy: QVQLVESGGGVVQPGRSLRLSCAASGFTFSAYAMNWIRQPPGKGLEWIGLIYGSGHEFYASWAEERVTISVDTSKNQFSLKLSSVTAADTAVYYCARGRSKNYNSDFHLWGQGTLVTVSSASTKGPSVFPLAPSSRSTSESTAALGCLVKDYFPEPVTVSWNSGALTSGVHTFPAVLQSSGLYSLSSVVTVPSSSLGTQTYICNVNHKPSNTKVDKRVEPKSCDKTHTCPPCPAPELRRGPSVFLFPPKPKDTLMISRTPEVTCVVVDVSQEDPEVQFNWYVDGVEVHNAKTKPREEQYNSTYRVVSVLTVLHQDWLNGKEYKCKVSNKALPAPIEKTISKAKGQPREPQVYTLPPSQEEMTKNQVSLTCLVKGFYPSDIAVEWESNGQPENNYKTTPPVLDSDGSFFLYSKLTVDKSRWQEGNVFSCSVLHEALHAHTTRKELSLSP
light: DIQMTQSPSSLSASVGDRVTITCQANQILHDKKNLAWYQQKPGQPPKLLIYGASTLESGVPSRFSGSGSGTDFTLTISSLQPEDFATYYCHGEFSYSSADLNTFGQGTKVEIKRTVAAPSVFIFPPSDEQLKSGTASVVCLLNNFYPREAKVQWKVDNALQSGNSQESVTEQDSKDSTYSLSSTLTLSKADYEKHKVYACEVTHQGLSSPVTKSFNRGEC
notes: built from VH+CH and VL+CL
With B4, the “KD (pH 6.0)/KD (pH 7.4)” value in assay [1] amounted to 71; in assay [2], 83. For the same molecule, the Kd in assay [3] came out at 19.3 nM; in assay [4], 0.272 nM; in assay [5], 0.365 nM; in assay [6], 30.3 nM.

The values above are taken from patent US20240287163A1 (Chugai, published 2024).
